Test results as given in patent US20260167721A1 (ABLEXIS, published 2026).

How the values were obtained:
[1] = molecular target: T1, human CD3 (TCR/CD3 complex on the cell surface) (human, UniProt P07766 23-207; P04234 22-171; P09693 23-182); assay: flow cytometry, Jurkat WT gMFI over Jurkat KO gMFI, 1 ug/mL
T1 construct: whole, on cells; Native CD3 on human Pan-T cells or Jurkat wild-type cells; also called CD3 on Pan-T cells; CD3 on Jurkat WT cells

[2] = molecular target: T1, human CD3 (TCR/CD3 complex on the cell …); assay: flow cytometry, Pan-T cells, 10 ug/mL
[3] = molecular target: T1, human CD3 (TCR/CD3 complex on the cell …); assay: flow cytometry, Pan-T cells, 1 ug/mL
[4] = molecular target: T1, human CD3 (TCR/CD3 complex on the cell …); assay: flow cytometry, Jurkat WT cells, 1 ug/mL
[5] = molecular target: T1, human CD3 (TCR/CD3 complex on the cell …); assay: flow cytometry, Jurkat WT gMFI over Jurkat KO gMFI, 10 ug/mL
[6] = molecular target: T1, human CD3 (TCR/CD3 complex on the cell …); assay: flow cytometry, Jurkat WT cells, 10 ug/mL

T1 sequence (P07766 23-207, chain 1 of 3): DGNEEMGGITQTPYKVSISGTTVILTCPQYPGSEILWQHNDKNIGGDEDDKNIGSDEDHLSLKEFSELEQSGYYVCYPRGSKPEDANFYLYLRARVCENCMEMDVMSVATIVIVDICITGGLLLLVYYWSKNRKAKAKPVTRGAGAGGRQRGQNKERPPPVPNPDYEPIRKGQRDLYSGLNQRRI
T1 sequence (P04234 22-171, chain 2 of 3): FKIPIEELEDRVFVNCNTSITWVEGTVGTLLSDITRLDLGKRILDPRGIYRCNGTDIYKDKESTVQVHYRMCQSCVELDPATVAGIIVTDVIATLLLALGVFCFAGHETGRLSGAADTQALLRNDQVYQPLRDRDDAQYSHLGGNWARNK
T1 sequence (P09693 23-182, chain 3 of 3): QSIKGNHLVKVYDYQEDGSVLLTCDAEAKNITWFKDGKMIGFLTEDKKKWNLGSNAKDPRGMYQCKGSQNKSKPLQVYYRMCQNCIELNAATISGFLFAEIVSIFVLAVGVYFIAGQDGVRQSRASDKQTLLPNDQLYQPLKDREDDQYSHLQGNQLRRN

Binder	Jurkat WT/KO (Fold) [1]	% Positive [2]	gMFI [2]	% Positive [3]	gMFI [3]	gMFI [4]	Jurkat WT/KO (Fold) [5]	gMFI [6]
CD3 × CD33-BspAb86 (bispecific antibody, KiH heterodimer) scFv-Fc: EVQLVESGGGLVKPGGSLRLSCAASGFTFSSYSMNWVRQAPGKCLEWVSSISRSGTYIYYADSVKGRFTISRDNAKNSLYLQMNSLRAEDTAVYYCARERWELLYFDYWGQGTLVTVSSGGGGSGGGGSGGGGSGGGGSQTVVTQEPSLTVSPGGTVTLTCASSTGAVTSGYYPNWFQQKPGQAPRALIYSTSNKHSWTPARFSGSLLGGKAALTLSGVQPEDEAEYYCLLYYGGAYVFGCGTKVTVLGGGGSDKTHTCPPCPAPEFEGGPSVFLFPPKPKDTLMISRTPEVTCVVVDVSHEDPEVKFNWYVDGVEVHNAKTKPREEQYNSTYRVVSVLTVLHQDWLNGKEYKCKVSNKALPASIEKTISKAKGQPREPQVYTLPPCREEMTKNQVSLWCLVKGFYPSDIAVEWESNGQPENNYKTTPPVLDSDGSFFLYSKLTVDKSRWQQGNVFSCSVMHEALHNHYTQKSLSLSPGK heavy: EVQLVQSGAEVKKPGSSVKVSCKASGYTITDSNIHWVRQAPGQSLEWIGYIYPYNGGTDYNQKFKNRATLTVDNPTNTAYMELSSLRSEDTAFYYCVNGNPWLAYWGQGTLVTVSSASTKGPSVFPLAPSSKSTSGGTAALGCLVKDYFPEPVTVSWNSGALTSGVHTFPAVLQSSGLYSLSSVVTVPSSSLGTQTYICNVNHKPSNTKVDKRVEPKSCDKTHTCPPCPAPEFEGGPSVFLFPPKPKDTLMISRTPEVTCVVVDVSHEDPEVKFNWYVDGVEVHNAKTKPREEQYNSTYRVVSVLTVLHQDWLNGKEYKCKVSNKALPASIEKTISKAKGQPREPQVCTLPPSREEMTKNQVSLSCAVKGFYPSDIAVEWESNGQPENNYKTTPPVLDSDGSFFLVSKLTVDKSRWQQGNVFSCSVMHEALHNRFTQKSLSLSPGK light: DIQLTQSPSTLSASVGDRVTITCRASESLDNYGIRFLTWFQQKPGKAPKLLMYAASNQGSGVPSRFSGSGSGTEFTLTISSLQPDDFATYYCQQTKEVPWSFGQGTKVEVKRTVAAPSVFIFPPSDEQLKSGTASVVCLLNNFYPREAKVQWKVDNALQSGNSQESVTEQDSKDSTYSLSSTLTLSKADYEKHKVYACEVTHQGLSSPVTKSFNRGEC	1.4 fold	92.4%	25400 gMFI	35.2%	5410 gMFI	3180 gMFI	3.9 fold	9550 gMFI
CD3 × CD33-BspAb90 (bispecific antibody, KiH heterodimer) scFv-Fc: not shown heavy: EVQLVQSGAEVKKPGSSVKVSCKASGYTITDSNIHWVRQAPGQSLEWIGYIYPYNGGTDYNQKFKNRATLTVDNPTNTAYMELSSLRSEDTAFYYCVNGNPWLAYWGQGTLVTVSSASTKGPSVFPLAPSSKSTSGGTAALGCLVKDYFPEPVTVSWNSGALTSGVHTFPAVLQSSGLYSLSSVVTVPSSSLGTQTYICNVNHKPSNTKVDKRVEPKSCDKTHTCPPCPAPEFEGGPSVFLFPPKPKDTLMISRTPEVTCVVVDVSHEDPEVKFNWYVDGVEVHNAKTKPREEQYNSTYRVVSVLTVLHQDWLNGKEYKCKVSNKALPASIEKTISKAKGQPREPQVCTLPPSREEMTKNQVSLSCAVKGFYPSDIAVEWESNGQPENNYKTTPPVLDSDGSFFLVSKLTVDKSRWQQGNVFSCSVMHEALHNRFTQKSLSLSPGK light: DIQLTQSPSTLSASVGDRVTITCRASESLDNYGIRFLTWFQQKPGKAPKLLMYAASNQGSGVPSRFSGSGSGTEFTLTISSLQPDDFATYYCQQTKEVPWSFGQGTKVEVKRTVAAPSVFIFPPSDEQLKSGTASVVCLLNNFYPREAKVQWKVDNALQSGNSQESVTEQDSKDSTYSLSSTLTLSKADYEKHKVYACEVTHQGLSSPVTKSFNRGEC	1.9 fold	98.1%	78400 gMFI	83.8%	11600 gMFI	4480 gMFI	7.5 fold	19400 gMFI
CD3 × CD33-BspAb89 (bispecific antibody, KiH heterodimer) scFv-Fc: not shown heavy: EVQLVQSGAEVKKPGSSVKVSCKASGYTITDSNIHWVRQAPGQSLEWIGYIYPYNGGTDYNQKFKNRATLTVDNPTNTAYMELSSLRSEDTAFYYCVNGNPWLAYWGQGTLVTVSSASTKGPSVFPLAPSSKSTSGGTAALGCLVKDYFPEPVTVSWNSGALTSGVHTFPAVLQSSGLYSLSSVVTVPSSSLGTQTYICNVNHKPSNTKVDKRVEPKSCDKTHTCPPCPAPEFEGGPSVFLFPPKPKDTLMISRTPEVTCVVVDVSHEDPEVKFNWYVDGVEVHNAKTKPREEQYNSTYRVVSVLTVLHQDWLNGKEYKCKVSNKALPASIEKTISKAKGQPREPQVCTLPPSREEMTKNQVSLSCAVKGFYPSDIAVEWESNGQPENNYKTTPPVLDSDGSFFLVSKLTVDKSRWQQGNVFSCSVMHEALHNRFTQKSLSLSPGK light: DIQLTQSPSTLSASVGDRVTITCRASESLDNYGIRFLTWFQQKPGKAPKLLMYAASNQGSGVPSRFSGSGSGTEFTLTISSLQPDDFATYYCQQTKEVPWSFGQGTKVEVKRTVAAPSVFIFPPSDEQLKSGTASVVCLLNNFYPREAKVQWKVDNALQSGNSQESVTEQDSKDSTYSLSSTLTLSKADYEKHKVYACEVTHQGLSSPVTKSFNRGEC	0.8 fold	1.7%	1960 gMFI	0.6%	1830 gMFI	1840 gMFI	0.9 fold	1750 gMFI

Continued, values first:

Jurkat WT/KO (Fold) [1]	% Positive [2]	gMFI [2]	% Positive [3]	gMFI [3]	gMFI [4]	Jurkat WT/KO (Fold) [5]	gMFI [6]	Binder
5.6 fold	99.8%	135000 gMFI	98.2%	29600 gMFI	16200 gMFI	9.5 fold	28400 gMFI	CD3 × CD33-BspAb93 (bispecific antibody) chain 1: NFMLTQPHSVSESPGKTVTISCTRSSGSIASKYVQWYQQRPGSSPTTVIYEDNQRPSGVPDRFSGSIDSSSNSASLTISGLKTEDEADYYCQSYYSNNRVFGCGTKLTVLGGGGSGGGGSGGGGSGGGGSEVQLVESGGGLVQPGGSLRLSCAASGFTFSRYSMNWVRQAPGKCLEWVSYISRSSTTIYYADSVKGRFTISRDNAKNSLYLQMNSLRDEDAAVYYCARERWELLYFDYWGQGTLVTVSSDKTHTCPPCPAPEFEGGPSVFLFPPKPKDTLMISRTPEVTCVVVDVSHEDPEVKFNWYVDGVEVHNAKTKPREEQYNSTYRVVSVLTVLHQDWLNGKEYKCKVSNKALPASIEKTISKAKGQPREPQVYTLPPCREEMTKNQVSLWCLVKGFYPSDIAVEWESNGQPENNYKTTPPVLDSDGSFFLYSKLTVDKSRWQQGNVFSCSVMHEALHNHYTQKSLSLSPGK chain 2: EVQLVQSGAEVKKPGSSVKVSCKASGYTITDSNIHWVRQAPGQSLEWIGYIYPYNGGTDYNQKFKNRATLTVDNPTNTAYMELSSLRSEDTAFYYCVNGNPWLAYWGQGTLVTVSSASTKGPSVFPLAPSSKSTSGGTAALGCLVKDYFPEPVTVSWNSGALTSGVHTFPAVLQSSGLYSLSSVVTVPSSSLGTQTYICNVNHKPSNTKVDKRVEPKSCDKTHTCPPCPAPEFEGGPSVFLFPPKPKDTLMISRTPEVTCVVVDVSHEDPEVKFNWYVDGVEVHNAKTKPREEQYNSTYRVVSVLTVLHQDWLNGKEYKCKVSNKALPASIEKTISKAKGQPREPQVCTLPPSREEMTKNQVSLSCAVKGFYPSDIAVEWESNGQPENNYKTTPPVLDSDGSFFLVSKLTVDKSRWQQGNVFSCSVMHEALHNRFTQKSLSLSPGK chain 3: DIQLTQSPSTLSASVGDRVTITCRASESLDNYGIRFLTWFQQKPGKAPKLLMYAASNQGSGVPSRFSGSGSGTEFTLTISSLQPDDFATYYCQQTKEVPWSFGQGTKVEVKRTVAAPSVFIFPPSDEQLKSGTASVVCLLNNFYPREAKVQWKVDNALQSGNSQESVTEQDSKDSTYSLSSTLTLSKADYEKHKVYACEVTHQGLSSPVTKSFNRGEC
3.7 fold	99.4%	127000 gMFI	94.6%	18500 gMFI	8110 gMFI	10.4 fold	31600 gMFI	CD3 × CD33-BspAb91 (bispecific antibody) chain 1: DIQMTQSPSTLSASVGDRVTITCRASQSISSWLAWFQQKTGKAPKLLIYKASSLESGVPSRFSGSGSGTEFTLTISSLQPDDFATYYCQQYISYSWTFGCGTKVEIKGGGGSGGGGSGGGGSGGGGSEVQLVESGGGLVQRGGSLRLSCAASGFTFSNYWMSWVRQAPGKCLEWVANIKEDGSEKYYVDSVKGRFTISRDNAKHSLYLQMNSLRAEDTAVYYCARERRTGYFDYWGQGTLVTVSSDKTHTCPPCPAPEFEGGPSVFLFPPKPKDTLMISRTPEVTCVVVDVSHEDPEVKFNWYVDGVEVHNAKTKPREEQYNSTYRVVSVLTVLHQDWLNGKEYKCKVSNKALPASIEKTISKAKGQPREPQVYTLPPCREEMTKNQVSLWCLVKGFYPSDIAVEWESNGQPENNYKTTPPVLDSDGSFFLYSKLTVDKSRWQQGNVFSCSVMHEALHNHYTQKSLSLSPGK chain 2: EVQLVQSGAEVKKPGSSVKVSCKASGYTITDSNIHWVRQAPGQSLEWIGYIYPYNGGTDYNQKFKNRATLTVDNPTNTAYMELSSLRSEDTAFYYCVNGNPWLAYWGQGTLVTVSSASTKGPSVFPLAPSSKSTSGGTAALGCLVKDYFPEPVTVSWNSGALTSGVHTFPAVLQSSGLYSLSSVVTVPSSSLGTQTYICNVNHKPSNTKVDKRVEPKSCDKTHTCPPCPAPEFEGGPSVFLFPPKPKDTLMISRTPEVTCVVVDVSHEDPEVKFNWYVDGVEVHNAKTKPREEQYNSTYRVVSVLTVLHQDWLNGKEYKCKVSNKALPASIEKTISKAKGQPREPQVCTLPPSREEMTKNQVSLSCAVKGFYPSDIAVEWESNGQPENNYKTTPPVLDSDGSFFLVSKLTVDKSRWQQGNVFSCSVMHEALHNRFTQKSLSLSPGK chain 3: DIQLTQSPSTLSASVGDRVTITCRASESLDNYGIRFLTWFQQKPGKAPKLLMYAASNQGSGVPSRFSGSGSGTEFTLTISSLQPDDFATYYCQQTKEVPWSFGQGTKVEVKRTVAAPSVFIFPPSDEQLKSGTASVVCLLNNFYPREAKVQWKVDNALQSGNSQESVTEQDSKDSTYSLSSTLTLSKADYEKHKVYACEVTHQGLSSPVTKSFNRGEC
